Source: publication PMC4976313, “ZCF32, a fungus specific Zn(II)2 Cys6 transcription factor, is a repressor of the biofilm development in the human pathogen Candida albicans”

T1: Zcf32 ZFN-MBP (Candida albicans, UniProt Q5ANG4 1-116)
T1 sequence: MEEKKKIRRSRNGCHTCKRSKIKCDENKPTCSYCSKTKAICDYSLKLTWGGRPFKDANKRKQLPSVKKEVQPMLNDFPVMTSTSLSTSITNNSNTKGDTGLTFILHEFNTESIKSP

B1: O1 (dsDNA)
DNA 1: TACCCGATATAGCCGATG
DNA 2: CATCGGCTATATCGGGTA
B2: O2 (dsDNA)
DNA 1: CCGATATAGCCGATGCAT
DNA 2: ATGCATCGGCTATATCGG

Biological target: T1, Zcf32 ZFN-MBP
Assay: EMSA; EMSA: 1X HEPES buffer (20 mM HEPES pH 7.8, 150 mM KCl, 0.1% BSA, 10% glycerol), on ice 30 min, 6% native PAGE
Conditions: protein: recombinant; tags: MBP (pMAL-c2x); chain copies: 2; label: 32P 5' end; blunt

| Binder | binding result |
| --- | --- |
| B1 | binds |
| B2 | binds |
